Values of other authors as cited in publication PMC7020651.

Assays:
[1] = target: Histone H4 (Homo sapiens) (UniProt P62805); test: ITC
[2] = target: Histone H4 1-12 (Homo sapiens) (UniProt P62805)

| Kd [1] [µM] | Kd [2] [µM] | Substance |
| --- | --- | --- |
| 40 | – | TAFII250 tandem bromodomains (from UniProt P21675) |
| – | 350 | P/CAF bromodomain (from UniProt Q92831) |
